Paper PMC3462190, “A Peptidic Unconjugated GRP78/BiP Ligand Modulates the Unfolded Protein Response and Induces Prostate Cancer Cell Death” (PLoS ONE, 2012)
Where no end group is shown, it is not given here.

B1: Bag-1: cochaperone Bag-1, HA-tagged (pcDNA3.1-HA-Bag-1), or endogenous (protein)
chain: TPLSALGIQDGCRVMLIGKKNSPQEEVELKKLKHLEKSVEKIADQLEELNKELTGIQQGFLPKDLQAE
modifications: left off: HA, end not stated, kept
notes: cochaperone Bag-1, HA-tagged (pcDNA3.1-HA-Bag-1), or endogenous
B2: Bag-1 peptide: internal sequence of 68 amino acids of Bag-1 (Bag1-L 202–269), HA-tagged, expressed from pcDNA3 (peptide)
chain: B1 chain
modifications: also: HA tag, end not given here

Legend:
GRP78/BiP [1] = assay: In vivo luciferase refolding assay in HEK-293 cells; format: cell-based; settings: heat shock 45°C 30 min, relative to non-heat-shocked cells, mean of three independent experiments ± SEM
Procedure: In vivo refolding assay was performed essentially according to the method described by. HEK-293 in a 70%-confluent 10 cm dish were transfected with β-actin-fire fly luciferase construct (2 µg), pcMV6-GRP78 (3 µg), Bag-1 or Bag-1 peptides in pcDNA3.1-HA (6 µg) and Renilla luciferase construct (0.5 µg) for equal transfection control. Two days after transfection the cells were divided into two and incubated in heat shock buffer (MOPS 20 mM and cycloheximide 20 µg/ml) for 30 min at 37°C. One half of the transfected cells was heat shocked for 30 min at 45°C and allowed to recover at 37°C for 30 min. The other half was left untreated and used as control. At the end of the experiments, the cells were harvested, lysed and luciferase activity was measured. The activity measured for the non-heat shocked cells was set as 100% of refolded luciferase and the activity measurements of the heat shocked cells were expressed relative this value.
Figure 2 Identification of Bag-1 peptide interfering with the action of GRP78/BiP. […] Depicted in blue and red are the ubiquitin-like domain and the BAG domain respectively. B. Identification of the Bag-1 peptide binding to GRP78/BiP. […] Western blot analysis with an HA antibody to detected the Bag-1 mutants is shown. […] Thereafter luciferase activity was measured. Results are expressed as percentage of refolding activity relative to non-heat-shocked cells and presented as bar charts of the average of three independent experiments ± SEM. *p<0.05.
Figure 6 Selectivity of action of the Bag-1 peptide. […] Fluorescence polarization (FP) assays with a 10 nM FITC-labeled 7-mer Bag-1 peptide and dilutions of the GST-fused substrate binding domain of GRP78 in 60 µl of Tris-GSH buffer (50 mM Tris, 10 mM reduced glutathione and 0.1% BSA, pH 8.0). Triplicate samples were measured after 5 h of incubation at room temperature with an Infinite F-200 reader (Tecan) with excitation at 490 nm and emission at 535 nm. Binding constants were determined from three independent experiments using non-linear regression in Sigma Plot 10.0. […]

GRP78/BiP [2] = assay: In vitro ATPase activity assay of GRP78; format: biochemical; settings: GRP78 0.5 µg, GST purified Bag-1 or Bag-1 peptide up to 1.5 µg, 1 h, 37°C
Procedure: In vitro ATPase activity assay of GRP78. A. ATPase activity was measured with the ATPase assay kit from Innova Bioscience (Cambridge, UK). The reaction mixture contained GRP78 (0.5 µg) increasing amounts of GST purified Bag-1 (continuous line) or Bag-1 peptide (dashed line) up to 1.5 µg. The reaction was carried out for 1 h at 37°C with purified ATP according to the manufacturer’s instructions. Each point represents the mean value of three independent experiments ± SEM. B. The purity of protein preparation used for the assay. Shown are 5 µg of purified GRP78 (StressMarq Biosciences, Victoria, Canada), GST Bag-1 peptide, and GST-Bag-1 used in the assay following SDS PAGE and Coomassie blue staining. (TIF) Click here for additional data file.

| Molecule | GRP78/BiP refolding activity (luciferase) (GRP78/BiP [1]) | ATPase activity of GRP78/BiP (GRP78/BiP [2]) |
| --- | --- | --- |
| 19-mer: Bag-1L 202–220 (TPLSALGIQDGCRVMLIGK; not fully specified) | inhibited the ability of GRP78/BiP to refold denatured protein |  |
| B1 | reduced to the control level | increased this enzymatic activity |
| B2 | reduced to the control level | did not have any effect on the ATPase activity of GRP78/BiP |
